Laboratory results published in paper PMC8517284.

Target: FLAG-tagged CysD3 (DIO3, NM_001362, selenocysteine codon replaced with cysteine) (UniProt P55073)
Assay: co-IP

Sequence of Myc-tagged β3 integrin (NM_000212.2) (P05106 27-788): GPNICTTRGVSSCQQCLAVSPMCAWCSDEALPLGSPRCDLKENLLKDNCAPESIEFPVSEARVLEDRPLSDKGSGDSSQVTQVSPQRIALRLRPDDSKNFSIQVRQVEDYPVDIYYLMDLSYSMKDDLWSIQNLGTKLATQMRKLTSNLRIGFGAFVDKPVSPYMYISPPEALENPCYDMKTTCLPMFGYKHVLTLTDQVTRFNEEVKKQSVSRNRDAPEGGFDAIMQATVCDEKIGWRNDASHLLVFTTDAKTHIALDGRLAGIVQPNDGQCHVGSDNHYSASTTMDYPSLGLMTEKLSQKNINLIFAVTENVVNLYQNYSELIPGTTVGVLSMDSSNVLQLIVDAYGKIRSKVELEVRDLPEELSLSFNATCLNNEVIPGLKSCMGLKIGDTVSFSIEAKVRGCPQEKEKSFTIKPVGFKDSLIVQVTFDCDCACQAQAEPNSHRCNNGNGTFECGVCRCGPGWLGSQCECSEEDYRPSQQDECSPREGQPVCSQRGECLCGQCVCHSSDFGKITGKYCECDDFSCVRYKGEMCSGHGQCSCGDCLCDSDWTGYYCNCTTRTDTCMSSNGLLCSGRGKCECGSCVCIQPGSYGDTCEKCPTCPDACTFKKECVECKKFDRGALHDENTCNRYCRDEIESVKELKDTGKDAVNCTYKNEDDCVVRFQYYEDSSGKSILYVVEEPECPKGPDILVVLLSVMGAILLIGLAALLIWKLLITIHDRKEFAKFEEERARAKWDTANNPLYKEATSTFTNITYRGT
Sequence of FLAG-tagged CysD3 (DIO3, NM_001362, selenocysteine codon replaced with cysteine) (P55073 whole entry): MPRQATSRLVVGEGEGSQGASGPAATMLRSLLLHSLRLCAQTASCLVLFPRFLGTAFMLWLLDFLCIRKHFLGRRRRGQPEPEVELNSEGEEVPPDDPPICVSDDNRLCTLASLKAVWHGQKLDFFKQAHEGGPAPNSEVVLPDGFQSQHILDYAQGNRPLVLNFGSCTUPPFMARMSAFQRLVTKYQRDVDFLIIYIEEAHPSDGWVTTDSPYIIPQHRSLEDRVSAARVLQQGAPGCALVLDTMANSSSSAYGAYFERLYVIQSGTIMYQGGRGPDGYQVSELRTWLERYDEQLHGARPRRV

fold reduction of the co-immunoprecipitation in the presence of cRGD and Tetrac: > 2 fold
Substance: Myc-tagged β3 integrin (NM_000212.2) (from UniProt P05106-1 27-788) (receptor)
